Measurements taken from patent US8030048B2, “Enantioselective epoxide hydlrolase and method for preparing and enantiopure epoxide using the same” (Korea Ocean Research and Development Institute, priority 2005, dated 2011).
“And” between values parts separate entries of the source, which are not always exact repeats. Equal entries are not always repeated.

B1: Erythrobacter litoralis HTCC2594 epoxide hydrolase rEEH1 (EEH1), SEQ ID NO: 13 (Erythrobacter litoralis HTCC2594) (protein)
chain: MSEIRPFVLDVPKADLDRLHRKLDDTRWPEKEPVDDWSQGTPLAALQDLAAYWRDGYDWRAGEAKLNALGQFITEIDGLDIHFLHVRSKCDDALPLILTHGWPGSVREFFDVIPLLTEPQDGMAFHVVAPSLPGFGFSGKPRNTGWGVDKIATAWATLMQRLGYTEWVAQGGDWGSAVTTAIGAQAPEGCKGIHVNMPIGRPGPDDMANPGPDELKALKALKFYQDWDSGYSKQQSTRPQTIGYSLVDSPVGLAGWIFEKMFFWTDNGGSPFDTLSMDAILDNIMLYWLPETGASAARLYWESFARFGEGTVAIPAGVSAFPKEIIPAPRKWAERRYADLVYWNECEKGGHFAAWEQPELFAAELRACFSLMR
notes: microsomal-EH-like
B2: Erythrobacter litoralis HTCC2594 epoxide hydrolase rEEH2 (EEH2), SEQ ID NO: 15 (Erythrobacter litoralis HTCC2594) (protein)
chain: MAGPSLGEWKAKAQHFAYDGLQIAFWTGGKPDARPLLLVHGYPTASWDWHRVWETLGSKYHLVAPDMIGFGLSDKPRSGYSIHRQADMHVALLDHLGIGAFDALVHDYGVSVGQELLARRAERSAAQGLGQTVFLNGGIFPDQHRPRPIQKLGTSPLGFLVGLLTNREKFGRSFSEVFGPDTQPGAQELDEFWDLVSHNGGNRIMHKLLHYIADRKEHAERWFDALRIAQGDIGLINGALDPVSGRHAYEAWRERLPDARHHLIPTVGHYPQVEDPQTVSRVTLDWLAR
notes: soluble-EH-like alpha/beta hydrolase
B3: Erythrobacter litoralis HTCC2594 epoxide hydrolase rEEH3 (EEH3), SEQ ID NO: 17 (Erythrobacter litoralis HTCC2594) (protein)
chain: MPDPASGIAINRVPANGLEFEVAMAGEGDHLALMLHGFPELHFSWRHQMPLLAEMGYRVWAPNMRGYGETTRPTEVRDYALDHLTQDVAALIDASGATKVTLIAHDWGAIIAWYFAILKLRPLERLVIMNVPHPKVLQRELRRWEQIKKSWYVFFFQLPWLPEKRIGADSGKRIGELFAQTSCNPERFGPDVKAVYAAGAARPGAPRAMVNYYRAAMRHRDTIDPGDFRVDVPTLLVWGEEDVALNIRCTEGTEQWVPDITVKRLPNVSHWVQQDAPDEVNAILREWLPKPAPAS
notes: as for B2

Legend:
[1] = molecular target: T1, Erythrobacter litoralis HTCC2594 epoxide hydrolase rEEH1 (EEH1), SEQ ID NO: 13 (Erythrobacter litoralis, UniProt Q2NAV3); test: Kinetic parameters of purified rEEH1 by GC analysis with (R)- or (S)-styrene oxide; assay type: biochemical; conditions: 100 mM potassium phosphate pH 8.0, 30° C.
T1 construct: microsomal-EH-like
T1 sequence (Q2NAV3 1-373): B1 chain
Experimental: (§1) Kinetic parameters of the rEEH1, rEEH2, rEEH3, sEEH, nEEH, and rEEH were determined by a GC analysis using (R)- or (S)- styrene oxide substrate. 100 ul of purified EHases were mixed with various concentrations of (R)- or (S)- styrene oxide in a 10 ml tube containing 1 ml of potassium phosphate buffer (100 mM, pH 8.0), and shake-incubated at 200 rpm and a temperature of 30° C. The extraction mixtures were extracted with 2 ml of hexane, and enantiomeric excess [ee; ee=100×(S−R)/(S+R)] toward enantiopure styrene oxide was analyzed with a chiraldex gamma-cyclodextrin trifluoroacetyl(G-TA) capillary GC column. Wherein, the FIG. 8 was diagramed with GC analysis for the hydrolyzing activities of enantioselective EHases (rEEH1, rEEH2, and rEEH3) toward racemic styrene oxide.
(§2) Kinetic parameters were estimated by non-linear regression analysis using a Sigma Plot program, and various substrates as depicted in FIG. 1 were also tested for the enantioselective hydrolyzing activity by rEEH1, rEEH2, rEEH3, sEEH, nEEH, and rEEH.

[2] = Effects of pH and temperature on the EHase activity of rEEH1, rEEH2 and rEEH3; assay type: biochemical; conditions: for optimum temperature (maximum hydrolysis rate): 10 to 70° C. at pH 7.5; for optimum pH: activity toward styrene oxide, pH 4.0 to 10.0
Experimental: The effect of pH on the EHase activity was measured with 50 mM sodium acetate-acetic acid buffer (pH 4.0 and 6.0), 50 mM MES buffer (pH 6.0 to 7.0), 50 mM Phosphate buffer (pH 7.0 to 9.0), and 50 mM Glycine buffer (pH 9.0 and 10.0), and the optimum reaction temperature on the EHase activity was measured over a temperature of range from 10 to 70° C. at pH 7.5.

[3] = Kinetic parameters of purified EHases by GC analysis, (S)-styrene oxide; assay type: biochemical; conditions: (S)-enantiomer of styrene oxide, Table 5
Experimental: as §1, §2

[4] = Kinetic parameters of purified EHases by GC analysis, (R)-styrene oxide; assay type: biochemical; conditions: (R)-enantiomer of styrene oxide, Table 5
Experimental: as §1, §2

[5] = Enantioselective hydrolyzing activity of purified EHases toward SO; assay type: biochemical; conditions: for Hydrolysis rate SO (R): (R)-enantiomer; for Hydrolysis rate SO (S): (S)-enantiomer; for enantiomer preference in hydrolysis of styrene oxide, in words: purified enzyme
Experimental: as §1, §2

[6] = Enantioselective hydrolyzing activity of purified EHases toward GPE; assay type: biochemical; conditions: for Hydrolysis rate GPE (R): (R)-enantiomer; for Hydrolysis rate GPE (S): (S)-enantiomer
Experimental: as §1, §2

[7] = Enantioselective hydrolyzing activity of purified EHases toward EX; assay type: biochemical; conditions: for Hydrolysis rate EX (R): (R)-enantiomer; for Hydrolysis rate EX (S): (S)-enantiomer
Experimental: as §1, §2

[8] = Enantioselective hydrolyzing activity of purified EHases toward EB; assay type: biochemical; conditions: for Hydrolysis rate EB (R): (R)-enantiomer; for Hydrolysis rate EB (S): (S)-enantiomer
Experimental: as §1, §2

[9] = Enantioselective hydrolyzing activity of purified EHases toward EF; assay type: biochemical
Experimental: as §1, §2

[10] = Substrate selectivity of rEEH1, rEEH2 and rEEH3 toward various epoxide substrates; assay type: biochemical; conditions: purified enzyme
Experimental: Also, the substrate selectivity of rEEH1, rEEH2 and rEEH3 toward various epoxide substrates depicted in FIG. 1 was same to Table 4.
as §2

[11] = substrate: c1ccc([C@@H]2CO2)cc1; test: Kinetic parameters of purified rEEH1 by GC analysis with (R)- or (S)-styrene oxide; assay type: biochemical, Erythrobacter litoralis HTCC2594; conditions: other: 100 mM potassium phosphate pH 8.0, 30° C.
Experimental: as §1, §2

[12] = substrate: c1ccc([C@H]2CO2)cc1; test: as above; assay type: biochemical, Erythrobacter litoralis HTCC2594; conditions: other: 100 mM potassium phosphate pH 8.0, 30° C.
Experimental: as §1, §2

[13] = Enantioselective hydrolyzing activity of purified EHases toward ECH; assay type: biochemical; conditions: for Hydrolysis rate ECH (R): (R)-enantiomer; for Hydrolysis rate ECH (S): (S)-enantiomer
Experimental: as §1, §2

[14] = substrate: c1ccc([C@@H]2CO2)cc1; test: Kinetic parameters of purified rEEH2 by GC analysis with (R)- or (S)-styrene oxide; assay type: biochemical, Erythrobacter litoralis HTCC2594; conditions: other: 100 mM potassium phosphate pH 8.0, 30° C.
Experimental: as §1, §2

[15] = substrate: c1ccc([C@H]2CO2)cc1; test: as above; assay type: biochemical, Erythrobacter litoralis HTCC2594; conditions: other: 100 mM potassium phosphate pH 8.0, 30° C.
Experimental: as §1, §2

[16] = substrate: c1ccc([C@@H]2CO2)cc1; test: Kinetic parameters of purified rEEH3 by GC analysis with (R)- or (S)-styrene oxide; assay type: biochemical, Erythrobacter litoralis HTCC2594; conditions: other: 100 mM potassium phosphate pH 8.0, 30° C.
Experimental: as §1, §2

[17] = substrate: c1ccc([C@H]2CO2)cc1; test: as above; assay type: biochemical, Erythrobacter litoralis HTCC2594; conditions: other: 100 mM potassium phosphate pH 8.0, 30° C.
Experimental: as §1, §2

Molecule	Vmax [1]	optimum temperature (maximum hydrolysis rate) [2]	optimum pH [2]	kcat Km [3]	kcat Km [4]	Hydrolysis rate SO (R) [5]	Hydrolysis rate SO (S) [5]	enantiomer preference in hydrolysis of styrene oxide, in words [5]	Hydrolysis rate GPE (R) [6]	Hydrolysis rate GPE (S) [6]	Hydrolysis rate EX (R) [7]	Hydrolysis rate EX (S) [7]	Hydrolysis rate EB (R) [8]	Hydrolysis rate EB (S) [8]	substrate selectivity, in words [10]	Hydrolysis rate ECH (R) [13]	Hydrolysis rate ECH (S) [13]	also measured
c1ccc([C@H]2CO2)cc1 [(S)-styrene oxide]	1.18 µmol/min																	
c1ccc([C@@H]2CO2)cc1 [(R)-styrene oxide]	2.3 µmol/min																	
B1		50 °C	6.5	10600 M⁻¹ s⁻¹	16300 M⁻¹ s⁻¹	28.0 (×10^−2) mg/min	9.00 (×10^−2) mg/min	(R)-styrene oxide was hydrolyzed faster than (S)-styrene oxide	11.0 (×10^−2) mg/min	20.0 (×10^−2) mg/min	7.00 (×10^−2) mg/min	8.00 (×10^−2) mg/min	15.0 (×10^−2) mg/min	15.0 (×10^−2) mg/min	hydrolyzed enantioselectively toward monosubstituted epoxides with bulky ring at C-1 position			Hydrolysis rate EF (R) ([9]; (R)-enantiomer): 4.00 (×10^−2) mg/min; Hydrolysis rate EF (S) ([9]; (S)-enantiomer): 15.0 (×10^−2) mg/min; Km [11]: 2.9 mM; Vmax [11]: 2.3 µmol/min; kcat [11]: 49.1 s⁻¹; Km [12]: 2.3 mM; kcat [12]: 24.5 s⁻¹
B2		55 °C	7.5	200 M⁻¹ s⁻¹	300 M⁻¹ s⁻¹	0.05 (×10^−2) mg/min	0.06 (×10^−2) mg/min	both of (S)-styrene oxide and (R)-styrene oxide were hydrolyzed at an equal rate	0.06 (×10^−2) mg/min	0.07 (×10^−2) mg/min	0.07 (×10^−2) mg/min	0.07 (×10^−2) mg/min	0.08 (×10^−2) mg/min	0.08 (×10^−2) mg/min		0.23 (×10^−2) mg/min	0.23 (×10^−2) mg/min	Km [14]: 5.49 mM and 5.4 mM; Vmax [14]: 0.11 µmol/min and 0.1 µmol/min; kcat [14]: 1.6 s⁻¹; Km [15]: 6.18 mM and 6.1 mM; Vmax [15]: 0.12 µmol/min and 0.1 µmol/min; kcat [15]: 1.7 s⁻¹
B3		45 °C	8.0	1700 M⁻¹ s⁻¹	1600 M⁻¹ s⁻¹	0.10 (×10^−2) mg/min	0.14 (×10^−2) mg/min	(S)-styrene oxide was hydrolyzed faster than (R)-styrene oxide	0.10 (×10^−2) mg/min	0.10 (×10^−2) mg/min	0.17 (×10^−2) mg/min	0.09 (×10^−2) mg/min	0.08 (×10^−2) mg/min	0.11 (×10^−2) mg/min	hydrolyzed enantioselectively aliphatic epoxides at C-1 position and styrene oxide	0.26 (×10^−2) mg/min	0.28 (×10^−2) mg/min	Km [16]: 2.61 mM and 2.6 mM; Vmax [16]: 0.29 µmol/min and 0.2 µmol/min; kcat [16]: 4.3 s⁻¹; Km [17]: 3.71 mM and 3.7 mM; Vmax [17]: 0.43 µmol/min and 0.4 µmol/min; kcat [17]: 6.5 s⁻¹
